Changes are numbered by the printed parent chain. Read-outs that look alike come from different tables or passages of the source.

The target in test [1] is pertussis toxin subunit S4 (Bordetella pertussis, UniProt P0A3R5 43-152). Briefly: Western blot of B-oligomer and PTx.
The target in test [2] is pertussis toxin subunit S3 (Bordetella pertussis, UniProt P04979 29-227). Briefly: Western blot of B-oligomer and PTx.
The target in test [3] is pertussis toxin subunit S2 (Bordetella pertussis, UniProt P04978 28-226). Briefly: Western blot of B-oligomer and PTx.
In test [4] the target is pertussis toxin subunit S5 (Bordetella pertussis, UniProt P04981 35-133). Briefly: Western blot of B-oligomer and PTx.
In test [5] the target is T1, pertussis toxin holotoxin (Bordetella pertussis, UniProt P04977 35-269; P04978 31-226; P04979 32-227; P0A3R5 43-152; P04981 36-133).
T1 construct: also called PTx; PT
Briefly: competition ELISA (Friguet), 5 nM antibody with PT in solution, coated PT.

For test [6], the target named is T2, pertussis toxin B-oligomer (Bordetella pertussis, UniProt P04978 31-226; P04979 32-227; P0A3R5 43-152; P04981 36-133). Description: ELISA repeated with mAb 1B7; EC50 as percent of the PTx reference.
For test [7], the target named is T3, PTx-S1-220 (truncated PTx-S1, residues 1-220, strain Tohama I, variant B) (Bordetella pertussis, UniProt P04977 35-254).
T3 sequence: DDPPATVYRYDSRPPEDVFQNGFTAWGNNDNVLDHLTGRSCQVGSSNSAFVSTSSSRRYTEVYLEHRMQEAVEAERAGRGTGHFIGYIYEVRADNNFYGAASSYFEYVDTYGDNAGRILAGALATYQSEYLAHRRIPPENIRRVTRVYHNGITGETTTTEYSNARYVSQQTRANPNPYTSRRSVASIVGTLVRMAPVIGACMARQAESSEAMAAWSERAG

In test [8] the target is T3, PTx-S1-220 (truncated PTx-S1, residues …). Briefly: SPR (BIAcore 3000), mAb 1B7 immobilised on CM5 chip, toxin injected.
For test [9], the target named is T4, PTx-S1D (residues 1-220, D34E, I198V) (Bordetella pertussis, UniProt P04977 35-254).
T4 chain: T3 sequence with D34E, I198V
The description is as above.

The target in test [10] is T5, PTx-S1 9K/129G (residues 1-220, R9K, E129G) (Bordetella pertussis, UniProt P04977 35-254).
T5 chain: T3 sequence with R9K, E129G
The test is described as above.

In test [11] the target is T2, pertussis toxin B-oligomer. The description is as above.
The target in test [12] is T1, pertussis toxin holotoxin. Described as above.
Test [13] deals with full length PTx-S1 (1-235) protomer (Bordetella pertussis, UniProt P04977 35-269). Described as above.
In test [14] the target is T6, PTx-S1A (residues 1-220, M194I) (Bordetella pertussis, UniProt P04977 35-254).
T6 chain: T3 sequence with M194I
The description is as above.

In test [15] the target is T7, PTx-S1-220 Y8A (Bordetella pertussis, UniProt P04977 35-254).
T7 chain: T3 sequence with Y8A
Description: Western blot with mAb 1B7; paragraph 150 says 1B7 was unable to bind Y8A.

Test [16] has as its target T1, pertussis toxin holotoxin. Description: cell-based or functional assay.

B1: murine monoclonal antibody 1B7 (antibody, V domains shown)
VH: EVQLQQSGSELVRPGASVKLSCKASGYKFTSYWMHWVKQRPGQGLEWIGNIFPGSGSTNYDEKFNSKATLTVDTSSNTAYMQLSSLTSEDSAVYYCTRWLSGAYFDYWGQGTTLTVSS
VL: DIQMTQSPALMSASPGEKVTMTCSASSSVSFMYWYQQKPRSSPKPWIYLTSNLPSGVPARFSGSGSGTSYSLTISSMEAEDAATYYCQQWSSHPPTFGSGTKLEIKR
notes: also called mAb 1B7; 1B7 mAb
As to B1, the binding result in test [1], in test [2], in [3], in [4] and in test [15] was “no binding” in each case. The molecule also gave a Kd in [5] of 1.1 nM. Further, the “% EC50 PTx” value in test [6] stood at 30%. Besides, the koff in [7] amounted to 0.0019 s⁻¹; in test [8], 0.0014 s⁻¹; in test [9], 0.00095 s⁻¹; in test [10] it was 0.0016 s⁻¹; in test [11], 0.0027 s⁻¹; in [12] it was 0.0004 s⁻¹. For the same molecule, the values for the koff in test [13] and in [14] were 0.0019 s⁻¹ and 0.00071 s⁻¹, respectively. The “In Vitro Neutralization (nM), minimum protective concentration, CHO clustering assay” value in test [16] came to 5.2 nM.
